According to patent US20220204638A1, “Combination Therapies Comprising Daratumumab, Bortezomib, Thalidomide and Dexamethasone and Their Uses” (Janssen Biotech, Inc., priority 2019, published 2022):

Assays:
[1] = tested on: relapsed and refractory multiple myeloma; assay: DARZALEX monotherapy safety, three open-label clinical trials (N=156); type: in vivo, human
From the text: Serious adverse reactions were reported in 51 (33%) patients.
Table 23 describes Grade 3-4 laboratory abnormalities reported at a rate of ≥10%.

[2] = tested on: relapsed or refractory multiple myeloma; assay: SIRIUS (NCT01985126) open-label DARZALEX monotherapy trial; type: in vivo, human
From the text: (§1) Treatment continued until unacceptable toxicity or disease progression.
The median patient age was 63.5 years (range: 31 to 84 years), 49% were male and 79% were Caucasian. Patients had received a median of 5 prior lines of therapy. […] Prior therapies included bortezomib (99%), lenalidomide (99%), pomalidomide (63%) and carfilzomib (50%).

[3] = tested on: relapsed or refractory multiple myeloma; assay: GEN501 (NCT00574288) open-label dose escalation monotherapy trial; type: in vivo, human
From the text: as §1
Seventy-four percent of patients had received prior ASCT. Prior therapies included bortezomib (100%), lenalidomide (95%), pomalidomide (36%) and carfilzomib (19%).

multiple myeloma = assay: Clinical trials pooled, monotherapy and combination treatments (N=2,066); type: in vivo, human
[4] = Immunogenicity, anti-daratumumab antibodies in clinical trials; type: in vivo, human
From the text: As with all therapeutic proteins, there is the potential for immunogenicity. The detection of antibody formation is highly dependent on the sensitivity and specificity of the assay. Additionally, the observed incidence of antibody (including neutralizing antibody) positivity in an assay may be influenced by several factors including assay methodology, sample handling, timing of sample collection, concomitant medications, and underlying disease. For these reasons, comparison of the incidence of antibodies to daratumumab in the studies described below with the incidence of antibodies in other studies or to other products may be misleading. […] One patient administered DARZALEX as combination therapy, developed transient neutralizing antibodies against daratumumab. However, this assay has limitations in detecting anti-daratumumab antibodies in the presence of high concentrations of daratumumab; therefore, the incidence of antibody development might not have been reliably determined.

[5] = Clinical pharmacokinetics of daratumumab; type: in vivo, human
From the text: Daratumumab volume of distribution was 4.7±1.3 L as monotherapy and 4.4±1.5 L as combination therapy following administration of the approved dosage.
Daratumumab clearance decreased with increasing dose and with multiple dosing.
The effect of severe (total bilirubin>3 times ULN and any AST) hepatic impairment on daratumumab pharmacokinetics is unknown.

CD38 on red blood cells = biological target: T1, CD38 on red blood cells (Homo sapiens, UniProt P28907); assay: Interference with Indirect Antiglobulin Test (Indirect Coombs test)
T1 construct: endogenous in cells; host or cells: red blood cells (reagent RBCs used in serological testing)
From the text: Daratumumab binds to CD38 on red blood cells (RBCs) and results in a positive Indirect Antiglobulin Test (Indirect Coombs test). Daratumumab-mediated positive indirect antiglobulin test may persist for up to 6 months after the last daratumumab infusion. Daratumumab bound to RBCs masks detection of antibodies to minor antigens in the patient's serum [see References (15)]. The determination of a patient's ABO and Rh blood type are not impacted [see Drug Interactions (7.1)].
Daratumumab binds to CD38 on RBCs and interferes with compatibility testing, including antibody screening and cross matching. Daratumumab interference mitigation methods include treating reagent RBCs with dithiothreitol (DTT) to disrupt daratumumab binding [see References (15)] or genotyping. Since the Kell blood group system is also sensitive to DTT treatment, K-negative units should be supplied after ruling out or identifying alloantibodies using DTT-treated RBCs.

[6] = Storage of diluted DARZALEX solution; type: physicochemical
From the text: Prepare the solution for infusion using aseptic technique as follows: • Calculate the dose (mg), total volume (mL) of DARZALEX solution required and the number of DARZALEX vials needed based on patient actual body weight. • Check that the DARZALEX solution is colorless to pale yellow. […] Infusion bags/containers must be made of either polyvinylchloride (PVC), polypropylene (PP), polyethylene (PE) or polyolefin blend (PP+PE). Dilute under appropriate aseptic conditions. Discard any unused portion left in the vial. • Gently invert the bag/container to mix the solution. […] The diluted solution may develop very small, translucent to white proteinaceous particles, as daratumumab is a protein. […] (59° F.-77° F.) and in room light. Diluted solution may be kept at room temperature for a maximum of 15 hours (including infusion time). • If not used immediately, the diluted solution can be stored prior to administration for up to 24 hours at refrigerated conditions 2° C.-8° C. (36° F.-46° F.) and protected from light.

NK cells = assay: Pharmacodynamics, NK cell counts; type: in vivo, human; conditions: peripheral whole blood and bone marrow
From the text: NK cells express CD38 and are susceptible to daratumumab mediated cell lysis.

[7] = Clinical pharmacokinetic drug-drug interaction assessments; conditions: human, in vivo
[8] = tested on: multiple myeloma, prior PI and immunomodulatory agent; assay: EQUULEUS (NCT01998971) open-label trial, DARZALEX with pomalidomide and dexamethasone
Method: In [sequence], patients receiving daratumumab combination treatment (n=97) were administered the first 16 mg/kg daratumumab dose at Week 1 split over two days i.e. 8 mg/kg on Day 1 and Day 2 respectively.
Pomalidomide (4 mg once daily orally on Days 1-21 of repeated 28-day [4-week] cycles) was given with low dose oral or intravenous dexamethasone 40 mg/week (reduced dose of 20 mg/week for patients>75 years or BMI<18.5).
The median patient age was 64 years (range: 35 to 86 years) with 8% of patients≥75 years of age. Patients in the study had received a median of 4 prior lines of therapy. Seventy-four percent (74%) of patients had received prior ASCT. Ninety-eight percent (98%) of patients received prior bortezomib treatment, and 33% of patients received prior carfilzomib. All patients received prior lenalidomide treatment, with 98% of patients previously treated with the combination of bortezomib and lenalidomide. Eighty nine percent (89%) of patients were refractory to lenalidomide and 71% refractory to bortezomib; 64% of patients were refractory to bortezomib and lenalidomide.

DARZALEX: IgG1κ human monoclonal antibody against CD38, HC SEQ ID NO: 9 and LC SEQ ID NO: 10
Serious adverse reactions ([1]; 16 mg/kg monotherapy): 33% | Arthralgia, Any Grade ([1]; human, in vivo): 17% | Arthralgia, Grade 3 ([1]; human, in vivo): 0% | Arthralgia, Grade 4 ([1]; human, in vivo): 0% | Back pain, Any Grade ([1]; human, in vivo): 23% | Back pain, Grade 3 ([1]; human, in vivo): 2% | Back pain, Grade 4 ([1]; human, in vivo): 0% | Chills, Any Grade ([1]; human, in vivo): 10% | Chills, Grade 3 ([1]; human, in vivo): 0% | Chills, Grade 4 ([1]; human, in vivo): 0% | Constipation, Any Grade ([1]; human, in vivo): 15% | Constipation, Grade 3 ([1]; human, in vivo): 0% | Constipation, Grade 4 ([1]; human, in vivo): 0% | Cough, Any Grade ([1]; human, in vivo): 21% | Cough, Grade 3 ([1]; human, in vivo): 0% | Cough, Grade 4 ([1]; human, in vivo): 0% | Decreased appetite, Any Grade ([1]; human, in vivo): 15% | Decreased appetite, Grade 3 ([1]; human, in vivo): 1% | Decreased appetite, Grade 4 ([1]; human, in vivo): 0% | Diarrhea, Any Grade ([1]; human, in vivo): 16% | Diarrhea, Grade 3 ([1]; human, in vivo): 1% | Diarrhea, Grade 4 ([1]; human, in vivo): 0% | Dyspnea, Any Grade ([1]; human, in vivo): 15% | Dyspnea, Grade 3 ([1]; human, in vivo): 1% | Dyspnea, Grade 4 ([1]; human, in vivo): 0% | Fatigue, Any Grade ([1]; human, in vivo): 39% | Fatigue, Grade 3 ([1]; human, in vivo): 2% | Fatigue, Grade 4 ([1]; human, in vivo): 0% | Headache, Any Grade ([1]; human, in vivo): 12% | Headache, Grade 3 ([1]; human, in vivo): 1% | Headache, Grade 4 ([1]; human, in vivo): 0% | Hypertension, Any Grade ([1]; human, in vivo): 10% | Hypertension, Grade 3 ([1]; human, in vivo): 5% | Hypertension, Grade 4 ([1]; human, in vivo): 0% | Infusion reaction, Any Grade ([1]; human, in vivo): 48% | Infusion reaction, Grade 3 ([1]; human, in vivo): 3% | Infusion reaction, Grade 4 ([1]; human, in vivo): 0% | Musculoskeletal chest pain, Any Grade ([1]; human, in vivo): 12% | Musculoskeletal chest pain, Grade 3 ([1]; human, in vivo): 1% | Musculoskeletal chest pain, Grade 4 ([1]; human, in vivo): 0% | Nasal congestion, Any Grade ([1]; human, in vivo): 17% | Nasal congestion, Grade 3 ([1]; human, in vivo): 0% | Nasal congestion, Grade 4 ([1]; human, in vivo): 0% | Nasopharyngitis, Any Grade ([1]; human, in vivo): 15% | Nasopharyngitis, Grade 3 ([1]; human, in vivo): 0% | Nasopharyngitis, Grade 4 ([1]; human, in vivo): 0% | Nausea, Any Grade ([1]; human, in vivo): 27% | Nausea, Grade 3 ([1]; human, in vivo): 0% | Nausea, Grade 4 ([1]; human, in vivo): 0% | Pain in extremity, Any Grade ([1]; human, in vivo): 15% | Pain in extremity, Grade 3 ([1]; human, in vivo): 1% | Pain in extremity, Grade 4 ([1]; human, in vivo): 0% | Pneumonia, Any Grade ([1]; human, in vivo): 11% | Pneumonia, Grade 3 ([1]; human, in vivo): 6% | Pneumonia, Grade 4 ([1]; human, in vivo): 0% | Pyrexia, Any Grade ([1]; human, in vivo): 21% | Pyrexia, Grade 3 ([1]; human, in vivo): 1% | Pyrexia, Grade 4 ([1]; human, in vivo): 0% | Serious adverse reaction, general physical health deterioration ([1]; human, in vivo): 3% | Serious adverse reaction, pneumonia ([1]; human, in vivo): 6% | Serious adverse reaction, pyrexia ([1]; human, in vivo): 3% | Upper respiratory tract infection, Any Grade ([1]; human, in vivo): 20% | Upper respiratory tract infection, Grade 3 ([1]; human, in vivo): 1% | Upper respiratory tract infection, Grade 4 ([1]; human, in vivo): 0% | Vomiting, Any Grade ([1]; human, in vivo): 14% | Vomiting, Grade 3 ([1]; human, in vivo): 0% | Vomiting, Grade 4 ([1]; human, in vivo): 0% | discontinuations due to adverse reactions ([1]; human, in vivo): 4% | treatment delay due to adverse reactions ([1]; human, in vivo): 15% | Anemia, Any Grade ([1]; lab abnormality): 45% | Anemia, Grade 3 ([1]; lab abnormality): 19% | Anemia, Grade 4 ([1]; lab abnormality): 0% | Lymphopenia, Any Grade ([1]; lab abnormality): 72% | Lymphopenia, Grade 3 ([1]; lab abnormality): 30% | Lymphopenia, Grade 4 ([1]; lab abnormality): 10% | Neutropenia, Any Grade ([1]; lab abnormality): 60% | Neutropenia, Grade 3 ([1]; lab abnormality): 17% | Neutropenia, Grade 4 ([1]; lab abnormality): 3% | Thrombocytopenia, Any Grade ([1]; lab abnormality): 48% | Thrombocytopenia, Grade 3 ([1]; lab abnormality): 10% | Thrombocytopenia, Grade 4 ([1]; lab abnormality): 8% | Overall response rate (ORR) ([2]; Independent Review Committee, IMWG criteria): 31 (29.2%) | Complete response (CR) ([2]; in vivo): 0 | Partial response (PR) ([2]; in vivo): 18 (17.0%) | Stringent complete response (sCR) ([2]; in vivo): 3 (2.8%) | Very good partial response (VGPR) ([2]; in vivo): 10 (9.4%) | median duration of response ([2]; in vivo): 7.4 months | median time to response ([2]; in vivo): 1 month | Overall response rate ([3]; 16 mg/kg, 42 patients): 36% | number of CR ([3]; 16 mg/kg, 42 patients): 1 | number of VGPR ([3]; 16 mg/kg, 42 patients): 3 | median duration of response ([3]; in vivo): not estimable | median time to response ([3]; in vivo): 1 month | Grade 3/4 infusion reaction at Week 2 or subsequent infusions (multiple myeloma; human, in vivo): Less than 1% | incidence of any grade infusion reactions, Week 2 infusion (multiple myeloma; human, in vivo): 2% | incidence of any grade infusion reactions, first (16 mg/kg, Week 1) infusion (multiple myeloma; human, in vivo): 37% | incidence of any grade infusion reactions, subsequent infusions (cumulative) (multiple myeloma; human, in vivo): 6% | time after completing infusion within which nearly all reactions occurred (multiple myeloma; human, in vivo): ≤ 4 h | patients who experienced an infusion reaction (multiple myeloma; in clinical trials): approximately half | time after infusion at which infusion reactions occurred (multiple myeloma; prior to the introduction of post-infusion medication): up to 48 hours | transient neutralizing antibodies against daratumumab ([4]; combination therapy): One patient | patients positive for anti-daratumumab antibodies ([4]; of the 1,050 evaluable combination therapy patients): 2 | mean serum Cmax at end of weekly dosing compared to first dose ([5]; approved recommended dosage, monotherapy or combination): 2.7 to 3 fold | Terminal half-life ([5]; combination therapy vs monotherapy): similar | trough serum concentration (Cmin) at end of weekly dosing, mean±SD ([5]; monotherapy): 573 ± 332 µg/mL | linear clearance, mean±SD ([5]; monotherapy, estimated): 171.4 ± 95.3 mL/day | terminal half-life associated with linear clearance, mean±SD ([5]; monotherapy, estimated): 18 ± 9 days | pharmacokinetics in specific populations ([5]; sex, age, mild and moderate hepatic impairment, renal impairment): No clinically significant differences | persistence of positive indirect antiglobulin test after the last infusion (CD38 on red blood cells): up to 6 months | time diluted solution can be stored refrigerated ([6]; 2-8 °C, protected from light): up to 24 hours | time diluted solution may be kept at room temperature ([6]; 15-25 °C, including infusion time): ≤ 15 h | absolute counts and percentages of total and activated NK cells (NK cells): Decreases | drug-drug interactions with lenalidomide, pomalidomide, bortezomib and dexamethasone [7]: no clinically relevant drug-drug interactions | incidence of any grade infusion-related reactions ([8]; combination treatment (n=97), first 16 mg/kg dose split over two days): 42% | infusion reactions on Day 2 of Week 1 ([8]; split first dose): 4% | infusion reactions with subsequent infusions ([8]; split first dose): 8%
